Our source for the EC50 of AKT S473 phosphorylation in DU145 cells values is patent US20250376500A1.

The assay has as its target IGF-1 receptor (IGF1R) on DU145 cells and on immortalized human meibomian gland epithelial cells (human) (UniProt P08069). Briefly: cell-based or functional assay.

Chain of IGF-1 receptor (IGF1R) on DU145 cells and on immortalized human meibomian gland epithelial cells (human) (P08069 31-1367): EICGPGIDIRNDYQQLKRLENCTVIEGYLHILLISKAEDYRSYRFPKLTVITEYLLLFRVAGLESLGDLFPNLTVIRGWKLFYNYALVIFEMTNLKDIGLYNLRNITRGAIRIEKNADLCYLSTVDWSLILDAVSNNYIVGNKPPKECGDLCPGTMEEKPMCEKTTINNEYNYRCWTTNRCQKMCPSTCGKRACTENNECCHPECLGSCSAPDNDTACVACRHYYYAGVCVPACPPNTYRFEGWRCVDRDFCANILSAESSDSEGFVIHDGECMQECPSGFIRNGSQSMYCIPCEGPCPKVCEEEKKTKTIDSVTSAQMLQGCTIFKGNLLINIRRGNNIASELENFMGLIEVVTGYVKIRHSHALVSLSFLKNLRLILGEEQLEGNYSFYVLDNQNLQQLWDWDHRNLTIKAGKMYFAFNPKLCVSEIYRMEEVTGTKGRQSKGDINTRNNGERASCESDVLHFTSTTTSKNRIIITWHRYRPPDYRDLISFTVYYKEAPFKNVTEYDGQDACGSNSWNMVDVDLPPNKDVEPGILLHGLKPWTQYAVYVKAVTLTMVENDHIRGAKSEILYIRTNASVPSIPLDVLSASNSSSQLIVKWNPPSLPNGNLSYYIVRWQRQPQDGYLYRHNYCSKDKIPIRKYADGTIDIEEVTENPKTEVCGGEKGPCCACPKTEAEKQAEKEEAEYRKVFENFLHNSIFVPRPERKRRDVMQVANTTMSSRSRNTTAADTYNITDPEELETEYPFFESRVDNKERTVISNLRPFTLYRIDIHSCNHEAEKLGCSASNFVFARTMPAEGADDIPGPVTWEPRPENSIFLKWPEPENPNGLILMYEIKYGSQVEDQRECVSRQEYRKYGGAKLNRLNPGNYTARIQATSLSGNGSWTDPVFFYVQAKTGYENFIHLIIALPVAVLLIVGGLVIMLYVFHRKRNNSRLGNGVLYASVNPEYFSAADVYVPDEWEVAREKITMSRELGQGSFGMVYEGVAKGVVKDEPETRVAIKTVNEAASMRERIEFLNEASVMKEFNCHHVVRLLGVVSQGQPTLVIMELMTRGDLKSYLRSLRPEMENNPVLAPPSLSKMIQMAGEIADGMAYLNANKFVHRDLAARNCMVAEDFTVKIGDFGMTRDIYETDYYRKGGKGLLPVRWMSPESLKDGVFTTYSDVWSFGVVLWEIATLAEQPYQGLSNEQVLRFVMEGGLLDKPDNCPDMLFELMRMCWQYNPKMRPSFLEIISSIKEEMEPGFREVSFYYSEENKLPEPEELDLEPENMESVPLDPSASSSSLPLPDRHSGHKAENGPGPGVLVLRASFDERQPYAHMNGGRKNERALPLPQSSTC

For the substance IGF-1 Des1-3 (SEQ ID NO: 8) (ligand), the EC50 of AKT S473 phosphorylation in DU145 cells worked out at 2.3 nM.
“IGF-1 E3R (SEQ ID NO: 4) (from UniProt P05019 49-118) (ligand)”: the EC50 of AKT S473 phosphorylation in DU145 cells was 4.5 nM.
As for “IGF-1 Ea (SEQ ID NO: 7) (from UniProt P17647 26-130) (ligand)”, the figure is 8.7 nM.
